Test results published in paper PMC4271523, “Differential Effects of a Mutation on the Normal and Promiscuous Activities of Orthologs: Implications for Natural and Directed Evolution” (Molecular Biology and Evolution, 2014).
Positions count from the first letter of the chain named. Names may count otherwise.

Key:
Assay in all cases: purified protein
[1] = substrate: N[C@@H](CCC=O)C(=O)O; type: biochemical, Aliivibrio fischeri; settings: 1 mM NADP+, 100 mM potassium phosphate pH 7.6, room temperature, reverse (dehydrogenase) direction, apparent KM corrected to free GSA aldehyde/hydrate
[2] = substrate: CC(=O)N[C@@H](CCC=O)C(=O)O; type: biochemical, Aliivibrio fischeri; settings: 1 mM NADP+, 100 mM potassium phosphate pH 7.6, room temperature, reverse (dehydrogenase) direction, promiscuous substrate, apparent KM, NAGSA in equilibrium with its hydrate
[3] = substrate: CC(=O)N[C@@H](CCC=O)C(=O)O; settings: 1 mM NADP+, 100 mM potassium phosphate pH 7.6, room temperature, reverse (dehydrogenase) direction, promiscuous substrate, apparent KM, NAGSA in equilibrium with its hydrate
[4] = substrate: N[C@@H](CCC=O)C(=O)O; settings: 1 mM NADP+, 100 mM potassium phosphate pH 7.6, room temperature, reverse (dehydrogenase) direction, apparent KM corrected to free GSA aldehyde/hydrate
[5] = substrate: CC(=O)N[C@@H](CCC=O)C(=O)O; type: biochemical, Pseudomonas putida; settings: 1 mM NADP+, 100 mM potassium phosphate pH 7.6, room temperature, reverse (dehydrogenase) direction, promiscuous substrate, apparent KM, NAGSA in equilibrium with its hydrate
[6] = substrate: N[C@@H](CCC=O)C(=O)O; type: biochemical, Pseudomonas putida; settings: 1 mM NADP+, 100 mM potassium phosphate pH 7.6, room temperature, reverse (dehydrogenase) direction, apparent KM corrected to free GSA aldehyde/hydrate
[7] = substrate: CC(=O)N[C@@H](CCC=O)C(=O)O; type: biochemical, Bacillus subtilis; settings: 1 mM NADP+, 100 mM potassium phosphate pH 7.6, room temperature, reverse (dehydrogenase) direction, promiscuous substrate, apparent KM, NAGSA in equilibrium with its hydrate
[8] = substrate: N[C@@H](CCC=O)C(=O)O; type: biochemical, Bacillus subtilis; settings: 1 mM NADP+, 100 mM potassium phosphate pH 7.6, room temperature, reverse (dehydrogenase) direction, apparent KM corrected to free GSA aldehyde/hydrate
[9] = substrate: CC(=O)N[C@@H](CCC=O)C(=O)O; type: biochemical, Saccharophagus degradans; settings: 1 mM NADP+, 100 mM potassium phosphate pH 7.6, room temperature, reverse (dehydrogenase) direction, promiscuous substrate, apparent KM, NAGSA in equilibrium with its hydrate
[10] = substrate: N[C@@H](CCC=O)C(=O)O; type: biochemical, Saccharophagus degradans; settings: 1 mM NADP+, 100 mM potassium phosphate pH 7.6, room temperature, reverse (dehydrogenase) direction, apparent KM corrected to free GSA aldehyde/hydrate
[11] = substrate: CC(=O)N[C@@H](CCC=O)C(=O)O; type: biochemical, Escherichia coli; settings: 1 mM NADP+, 100 mM potassium phosphate pH 7.6, room temperature, reverse (dehydrogenase) direction, promiscuous substrate, apparent KM, NAGSA in equilibrium with its hydrate
[12] = substrate: N[C@@H](CCC=O)C(=O)O; type: biochemical, Escherichia coli; settings: 1 mM NADP+, 100 mM potassium phosphate pH 7.6, room temperature, reverse (dehydrogenase) direction, apparent KM corrected to free GSA aldehyde/hydrate
[13] = substrate: N[C@@H](CCC=O)C(=O)O; type: biochemical, Methanosarcina acetivorans; settings: 1 mM NADP+, 100 mM potassium phosphate pH 7.6, room temperature, reverse (dehydrogenase) direction, apparent KM corrected to free GSA aldehyde/hydrate

B1: Allivibrio fischeri ProA (Aliivibrio fischeri ES114) (protein)
chain: MNLTTMGQAAKAAAFDLAVAPTAQKNKALAIIADELEANKDAILAANEKDIKAAVEAGISEAMQDRLLLTEERLVGIANDVRNVINLNDPVGSEIDSKVLENGMSLSRRRVPIGVIGVIYEARPNVTIDIASLCLKTGNASILRGGKETFFSNMELVKVIQVALEKAGLPAASVQYIEKPDRELVSQLLTMDDYVDMIIPRGGAGLHKMCKENSSIPVIIGGFGISHAFVDESADLERALVVVDNSKAQRPSACNALDTLLVHEAVAPQFLALLANNMAGRVELVAEPKAYGLLKEFEGVSLREAQEGDFDTEWLSYTLGVKVVADVNEAAAHMQKHNASHSDTILTNNIESAEKFINTAGSAAVYVNASTRFTDGAQFGLGAEVAVSTQKLHARGPMGLEELTSYKWVGKADYLIRS
notes: His-tagged, pTrcHisB, expressed in delta-argC delta-proA E. coli BW25113 (DE3)
Km [1]: 46 ± 11 µM
kcat [1]: 1.9 ± 0.2 s⁻¹
kcat/Km [1]: 42000 ± 6000 M⁻¹ s⁻¹

B2: Allivibrio fischeri ProA (Aliivibrio fischeri ES114; E384A) (protein)
chain: B1 chain with E384A
notes: as for B1
Km [2]: 65 ± 23 µM

B3: Salmonella enterica ProA (Salmonella enterica subsp. enterica serovar Typhimurium str. LT2) (protein)
chain: MLEQMGIAAKAASYKLALLSSGEKNRVLEKIADELEAQMESILSANVQDVEQARANGLSEAMLDRLALTPARLKAIADDVRQVCNLADPVGQVIDGGLLDSGLRLERRRVPLGVVGVIYEARPNVTVDVASLCLKTGNAVILRGGKETYRTNAATVRVIQKALKACGLPEAAVQAIDNPDRSLVNEMLRMDKYIDMLIPRGGAGLHKLCREQSTIPVITGGIGVCHIFVDSSADIAPALKIIVNAKTQRPSTCNTVETLLVHQDIAERFLPALSKQMAESGVTLHGDETVMQVLHGPAKLVPLKPEELDNEFLSLDLNVVVVENMDGAIAHIREHGTQHSDAILTCDMHNAARFVNEVDSAAVYVNASTRFTDGGQFGLGAEVAVSTQKLHARGPMGLEALTTYKWIGFGDGTIRA
Km [3]: 2600 ± 100 µM
Km [4]: 54 ± 12 µM
kcat [4]: 3.7 ± 0.5 s⁻¹
kcat/Km [4]: 69000 ± 7000 M⁻¹ s⁻¹

B4: Pseudomonas putida ProA (Pseudomonas putida KT2440) (protein)
chain: MTESVLDYMTRLGRAAREASRVIGRASTAQKNRALQAAADALDAARAELTAANELDLAAGRASGLEPALLDRLALTPARIDGMITGLRQVASLPDPVGAIRDMSYRPSGIQVGKMRTPLGVIGIIYESRPNVTIDAASLCLKSGNATILRGGSEAIHSNRAIATCIQRGLAEAGLPAAVVQVVETTDREAVGALISMPEFVDVIVPRGGRGLIERISRDARVPVIKHLDGICHIYVSQHADLDKAWNVAFNAKTYRYGICGAMETLLVDQQVAERFLPEMARRFVEKGVELRGCERTQAIISAKPATEADWHTEYLDAILSIRVVDGLNQAIEHINHYGSHHTDSIISEHQGEARQFMAEVDSASVMLNTPTCFADGFEYGLGAEIGISTDKLHARGPVGLEGLTCEKYVVIGDGQLRGQGSC
notes: as for B1
Km [5]: 5200 ± 1900 µM
kcat [5]: 0.001 ± 0.0003 s⁻¹
kcat/Km [5]: 0.15 ± 0.055 M⁻¹ s⁻¹
Km [6]: 140 ± 90 µM
kcat [6]: 0.74 ± 0.23 s⁻¹
kcat/Km [6]: 6100 ± 1700 M⁻¹ s⁻¹

B5: Bacillus subtilis ProA (Bacillus subtilis subsp. subtilis str. 168) (protein)
chain: MSEVSVKAKLAKEAAAEMIMKTTAEKDEALSLIANGLRKELDFLLAENAKDIVNGKENGLTPDIIDRLSLDEKRIRDIADAVELLIDLADPIGDSLETIEKENGLFIEKIRVPLGVVGMIYEARPNVTVDAATLCLKTGNAVVLRGSSSAIHSNKALVSVIYRALEQSALPIHAVQLIEDTSRETAKELFTLNDGLDVLIPRGGKKLIDLVVRESTVPVLETGAGNCHIFIDETAKPQMAEKVVVNAKTQRPSVCNAIESLLIHKAWARQHGKELLDQLENAGVEIRGDELVCELHPSSKQASKEDWETEFLAPVLSVKTVENVQEAVKHIQQYGTNHSEAILTENDKNAVYFQTAVDAAAVYHNASTRFTDGFEFGYGAEIGISTQKLHARGPMGLPALTSTKYIIKGTGQIRE
notes: as for B1
Km [7]: 6000 ± 1500 µM
kcat [7]: 0.0014 ± 0.0003 s⁻¹
kcat/Km [7]: 0.24 ± 0.015 M⁻¹ s⁻¹
Km [8]: 150 ± 20 µM
kcat [8]: 1.7 ± 0.2 s⁻¹
kcat/Km [8]: 11000 ± 1000 M⁻¹ s⁻¹

B6: Bacillus subtilis ProA (Bacillus subtilis subsp. subtilis str. 168; E381A) (protein)
chain: B5 chain with E381A
notes: as for B1
Km [7]: 46 ± 19 µM
kcat [7]: 0.0028 ± 0.0004 s⁻¹
kcat/Km [7]: 61 ± 14 M⁻¹ s⁻¹

B7: Saccharophagus degradans ProA (Saccharophagus degradans 2-40) (protein)
chain: MTVQDYMLTLGKQARAASRQMASADTGKKNAALLAIADAINSARDTIAAENARDMEAGRANGLDAALLDRLELTPERIDGMIEGLNQVAALPDPCGEITDLKYRPSGIQLGKKRTPLGVVGIIYESRPNVTVDAASLCLKSGNAAILRGGSEAIHSNKAVAVCIAAGLKAAGLPETAVQVVETTDRAAVGELITMTKYVDVVVPRGGKSLIERISADARVSVIKHLDGICHVYVDKTANLDKAFNIVINSKTHRYGVCNAMETMLVDEAIAADFLPRAAKEFAARGVELRGCEKTVALLTASDIPVVAALEEDWDTEYLAPILSIKLVANMDEAIEHINNHGSHHTDALVSENYTLARKFLTEVDSSSVMINASTRFADGFEYGLGAEIGISTDKIHARGPVGLEGLTSQKWIVFGDGHIRN
notes: as for B1
Km [9]: 820 ± 160 µM
kcat [9]: 3e-05 ± 3e-06 s⁻¹
kcat/Km [9]: 0.037 ± 0.004 M⁻¹ s⁻¹
Km [10]: 85 ± 13 µM
kcat [10]: 0.4 ± 0.04 s⁻¹
kcat/Km [10]: 4700 ± 400 M⁻¹ s⁻¹

B8: E. coli ProA (GP reductase) (Escherichia coli K-12) (protein)
chain: MLEQMGIAAKQASYKLAQLSSREKNRVLEKIADELEAQSEIILNANAQDVADARANGLSEAMLDRLALTPARLKGIADDVRQVCNLADPVGQVIDGGVLDSGLRLERRRVPLGVIGVIYEARPNVTVDVASLCLKTGNAVILRGGKETCRTNAATVAVIQDALKSCGLPAGAVQAIDNPDRALVSEMLRMDKYIDMLIPRGGAGLHKLCREQSTIPVITGGIGVCHIYVDESVEIAEALKVIVNAKTQRPSTCNTVETLLVNKNIADSFLPALSKQMAESGVTLHADAAALAQLQAGPAKVVAVKAEEYDDEFLSLDLNVKIVSDLDDAIAHIREHGTQHSDAILTRDMRNAQRFVNEVDSSAVYVNASTRFTDGGQFGLGAEVAVSTQKLHARGPMGLEALTTYKWIGIGDYTIRA
notes: as for B1
Km [11]: 480 ± 30 µM
Km [12]: 43 ± 3 µM
kcat [12]: 5.1 ± 0.2 s⁻¹
kcat/Km [12]: 120000 ± 10000 M⁻¹ s⁻¹

B9: Methanosarcina acetivorans ProA (Methanosarcina acetivorans C2A) (protein)
chain: MAEDIETKVVKAKKASIELSSVSEEVKNRALEAMAESLDRERKAILEANSKDLEYASELKKVGKLTQALVDRLKVTDSKIDGMIAGIMDVIKLKDPVGETLSTLELDNDLILYQISCPIGLIGVIFESRPDVVPQVMSLCLKSGNATIFKGGSEARESNRTIFEILVKAIESTEGMPKGAFQLMETREEIMSLLSLDAYVDLLIPRGSNEFVKFIQDNTKIPVLGHTSGICHIYVDEFADPDTAWKVCFDAKVQYPAVCNAIETLLVNRKIAEAFLPKMAEMYIKAGVELRCDKDSYILLAEKGLSPLSKATEEDWSLEYNDLILSIKLVDTIKEAIAHINTFGSHHTDGIITENASRRKEFIGLVDSSSVMVNASTRFADGYRYGKGAEVGISTNKIHSRGPVGMEGLLIYKYILMGKGQVVADYAGENAKPYTHRKLDLKFADVN
notes: as for B1
Km [13]: 14 ± 4 µM
kcat [13]: 0.43 ± 0.03 s⁻¹
kcat/Km [13]: 25000 ± 11000 M⁻¹ s⁻¹

B10: Methanosarcina acetivorans ProA (Methanosarcina acetivorans C2A; E390A) (protein)
chain: B9 chain with E390A
notes: as for B1
Km [13]: 56 ± 28 µM
kcat [13]: 0.0018 ± 0.0005 s⁻¹
kcat/Km [13]: 32 ± 15 M⁻¹ s⁻¹
